Reference: the supplement of paper PMC10065799, “High-throughput profiling of sequence recognition by tyrosine kinases and SH2 domains using bacterial peptide display” (eLife, 2023)

Biological target: FGFR3 (UniProt P22607)
Assay: phosphorylation enrichment, bacterial display (enrichment ratio); higher = better substrate or ligand; peptides without Tyr show the background
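Note: 11-residue human phosphosite peptides and single-mutation variants displayed on the E. coli surface, counted by deep sequencing, each peptide's frequency after selection divided by its frequency in the unselected input library; frequency after pTyr selection over input frequency; kinase dosed for 20-30% of maximal phosphorylation in three min.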

Sequence of FGFR3 (P22607 whole entry, looked up): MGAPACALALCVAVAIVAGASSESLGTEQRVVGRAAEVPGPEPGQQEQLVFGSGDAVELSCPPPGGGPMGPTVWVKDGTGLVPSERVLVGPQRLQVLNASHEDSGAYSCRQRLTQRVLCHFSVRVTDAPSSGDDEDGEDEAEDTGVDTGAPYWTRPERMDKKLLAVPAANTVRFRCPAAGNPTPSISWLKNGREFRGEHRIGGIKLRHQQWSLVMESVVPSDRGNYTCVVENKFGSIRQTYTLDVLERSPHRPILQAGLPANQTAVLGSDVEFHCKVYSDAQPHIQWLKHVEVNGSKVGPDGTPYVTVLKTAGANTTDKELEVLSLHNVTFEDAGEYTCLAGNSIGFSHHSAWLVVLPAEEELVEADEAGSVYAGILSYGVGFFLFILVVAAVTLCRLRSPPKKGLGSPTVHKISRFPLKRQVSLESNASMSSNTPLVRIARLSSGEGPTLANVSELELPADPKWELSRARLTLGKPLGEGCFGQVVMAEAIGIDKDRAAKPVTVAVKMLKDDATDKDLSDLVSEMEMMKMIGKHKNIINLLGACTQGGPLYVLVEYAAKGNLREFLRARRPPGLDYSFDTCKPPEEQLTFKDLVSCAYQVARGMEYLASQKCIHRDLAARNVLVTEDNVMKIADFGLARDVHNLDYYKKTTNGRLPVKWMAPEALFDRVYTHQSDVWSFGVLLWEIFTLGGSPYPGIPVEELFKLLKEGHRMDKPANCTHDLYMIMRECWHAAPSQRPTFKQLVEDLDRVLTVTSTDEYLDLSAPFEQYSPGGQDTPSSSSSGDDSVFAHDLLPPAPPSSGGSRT

Point of comparison: DDKQPYEKKAE [HMGB1_Y144_A149E], phosphorylation enrichment 0.631. Against it:
- RSFSPCDFQPC [TNS1_Y796_Y796C_YF] — higher, 0.822
- GESVSYLFSHV [PRPS1_Y311] — lower, 0.588
- ASELGYVFQAI [UROD_Y133] — higher, 0.749
- GFEVVYVTEPI [HSP90AB1_Y512_M513V] — lower, 0.605
- FKIFRYTLNDN [FN1_Y1975_L1974R_YF] — lower, 0.589
- SVTCTYSPALT [TP53_Y126_N131T] — higher, 0.908
- AALKLYHVSDS [VIL1_Y256] — higher, 0.672
- TFHNTYHSQMR [IL1RAPL1_Y615] — lower, 0.489
- DGLASYLDKVR [KRT12_Y139_R135G] — lower, 0.51
- LSIQTYSALNF [DES_Y423_P419S] — higher, 1.09
- TPLSAYQIPRT [GAB2_Y324] — lower, 0.317
- ADNQRYAFMPL [TMEM87B_Y460_N456D] — higher, 0.641
- TGILLYGLASR [QARS1_Y57] — higher, 0.692
- TVLEPYADPYY [ZC3H18_Y367] — higher, 0.905
- WQQQSYLDSGS [CTNNB1_Y30_I35S] — lower, 0.536
- DPHQQYFIAMD [TBX15_Y159_YF] — higher, 1.19
- VMIYAYLLHRG [PTEN_Y138_C136Y] — higher, 0.703
- SGPRRYNIAAL [TTR_Y125_T126N] — lower, 0.394
- EQLRAYLEGEC [HLA-C_Y183_T187E] — higher, 0.949
- HQNGTYGLHQD [SGSH_Y89_M88T] — higher, 0.727
- KYVKMCDNHQL [MYO9A_Y203_Y203C] — lower, 0.547
- RLLVLYPWTQR [HBB_Y36_V35L] — higher, 0.987
- IGMSSYVMLAS [GGCX_Y301_F299S] — higher, 1.36
- DTCPPYVLSQV [GJB4_Y237_G242V] — higher, 0.776
- TGTQLYGRFGS [ITGA2B_Y384] — lower, 0.513
- NPSYNYEIVNQ [DYNC1H1_Y3379_R3384Q] — higher, 0.701
- SFLSYYTSHVQ [NEFL_Y443_P440L] — higher, 1.01
- IRTDAYVQAMT [RPE65_Y89_R91Q] — lower, 0.503
- MSIWPYLQKID [MFSD8_Y63] — lower, 0.599
- NGRTGYVLQPE [PLCG2_Y1036] — lower, 0.431
- DGKFSYLKVGH [GRM3_Y480_G475D_YF] — lower, 0.478
- YRIGPYQPNVP [MATR3_Y784] — higher, 0.712

System: Fer (mouse)
Assay: as above

Point of comparison: WQQQSYLDSGS [CTNNB1_Y30_I35S], phosphorylation enrichment 0.675. Against it:
- RSFSPCDFQPC [TNS1_Y796_Y796C_YF] — lower, 0.584
- GESVSYLFSHV [PRPS1_Y311] — lower, 0.417
- ASELGYVFQAI [UROD_Y133] — lower, 0.386
- GFEVVYVTEPI [HSP90AB1_Y512_M513V] — lower, 0.444
- FKIFRYTLNDN [FN1_Y1975_L1974R_YF] — lower, 0.403
- SVTCTYSPALT [TP53_Y126_N131T] — higher, 0.706
- AALKLYHVSDS [VIL1_Y256] — lower, 0.427
- TFHNTYHSQMR [IL1RAPL1_Y615] — lower, 0.466
- DGLASYLDKVR [KRT12_Y139_R135G] — lower, 0.365
- LSIQTYSALNF [DES_Y423_P419S] — higher, 2.61
- TPLSAYQIPRT [GAB2_Y324] — lower, 0.586
- ADNQRYAFMPL [TMEM87B_Y460_N456D] — lower, 0.502
- TGILLYGLASR [QARS1_Y57] — higher, 1.46
- TVLEPYADPYY [ZC3H18_Y367] — lower, 0.516
- DPHQQYFIAMD [TBX15_Y159_YF] — lower, 0.396
- VMIYAYLLHRG [PTEN_Y138_C136Y] — lower, 0.371
- SGPRRYNIAAL [TTR_Y125_T126N] — lower, 0.432
- EQLRAYLEGEC [HLA-C_Y183_T187E] — lower, 0.537
- HQNGTYGLHQD [SGSH_Y89_M88T] — lower, 0.431
- KYVKMCDNHQL [MYO9A_Y203_Y203C] — lower, 0.379
- RLLVLYPWTQR [HBB_Y36_V35L] — lower, 0.594
- IGMSSYVMLAS [GGCX_Y301_F299S] — lower, 0.522
- DTCPPYVLSQV [GJB4_Y237_G242V] — higher, 1.2
- TGTQLYGRFGS [ITGA2B_Y384] — lower, 0.389
- NPSYNYEIVNQ [DYNC1H1_Y3379_R3384Q] — higher, 2.7
- SFLSYYTSHVQ [NEFL_Y443_P440L] — lower, 0.583
- DDKQPYEKKAE [HMGB1_Y144_A149E] — lower, 0.464
- IRTDAYVQAMT [RPE65_Y89_R91Q] — lower, 0.41
- MSIWPYLQKID [MFSD8_Y63] — lower, 0.362
- NGRTGYVLQPE [PLCG2_Y1036] — lower, 0.466
- DGKFSYLKVGH [GRM3_Y480_G475D_YF] — lower, 0.338
- YRIGPYQPNVP [MATR3_Y784] — lower, 0.5

Biological target: Fes (UniProt P07332)
Assay: as above

Sequence of Fes (P07332 whole entry, looked up): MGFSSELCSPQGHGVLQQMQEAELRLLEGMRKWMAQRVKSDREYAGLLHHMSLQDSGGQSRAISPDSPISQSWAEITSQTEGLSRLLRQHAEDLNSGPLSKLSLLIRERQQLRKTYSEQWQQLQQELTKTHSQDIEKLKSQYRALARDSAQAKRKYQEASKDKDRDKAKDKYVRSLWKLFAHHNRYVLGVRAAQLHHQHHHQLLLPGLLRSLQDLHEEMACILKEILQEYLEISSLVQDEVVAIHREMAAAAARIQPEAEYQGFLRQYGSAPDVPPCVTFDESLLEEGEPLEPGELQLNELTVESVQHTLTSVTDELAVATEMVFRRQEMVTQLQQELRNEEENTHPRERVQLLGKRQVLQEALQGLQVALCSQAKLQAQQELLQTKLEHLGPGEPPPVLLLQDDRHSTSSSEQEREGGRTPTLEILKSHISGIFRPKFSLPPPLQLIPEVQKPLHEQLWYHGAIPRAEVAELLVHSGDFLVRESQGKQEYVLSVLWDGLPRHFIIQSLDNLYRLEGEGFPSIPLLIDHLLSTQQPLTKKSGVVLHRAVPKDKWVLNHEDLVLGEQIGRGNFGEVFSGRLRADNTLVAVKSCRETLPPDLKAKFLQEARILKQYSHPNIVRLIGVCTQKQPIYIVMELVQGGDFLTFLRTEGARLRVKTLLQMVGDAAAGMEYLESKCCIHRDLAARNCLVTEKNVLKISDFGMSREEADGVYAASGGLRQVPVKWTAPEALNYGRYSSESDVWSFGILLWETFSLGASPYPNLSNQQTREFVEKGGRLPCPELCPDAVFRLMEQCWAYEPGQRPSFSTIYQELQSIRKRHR

Point of comparison: TGTQLYGRFGS [ITGA2B_Y384], phosphorylation enrichment 0.654. Against it:
- RSFSPCDFQPC [TNS1_Y796_Y796C_YF] — higher, 0.972
- GESVSYLFSHV [PRPS1_Y311] — higher, 0.996
- ASELGYVFQAI [UROD_Y133] — higher, 0.852
- GFEVVYVTEPI [HSP90AB1_Y512_M513V] — higher, 0.959
- FKIFRYTLNDN [FN1_Y1975_L1974R_YF] — higher, 1.03
- SVTCTYSPALT [TP53_Y126_N131T] — higher, 1.76
- AALKLYHVSDS [VIL1_Y256] — higher, 0.766
- TFHNTYHSQMR [IL1RAPL1_Y615] — lower, 0.567
- DGLASYLDKVR [KRT12_Y139_R135G] — higher, 0.757
- LSIQTYSALNF [DES_Y423_P419S] — higher, 2.14
- TPLSAYQIPRT [GAB2_Y324] — lower, 0.539
- ADNQRYAFMPL [TMEM87B_Y460_N456D] — higher, 0.812
- TGILLYGLASR [QARS1_Y57] — higher, 1.16
- TVLEPYADPYY [ZC3H18_Y367] — higher, 1.69
- WQQQSYLDSGS [CTNNB1_Y30_I35S] — higher, 0.741
- DPHQQYFIAMD [TBX15_Y159_YF] — higher, 1.1
- VMIYAYLLHRG [PTEN_Y138_C136Y] — higher, 0.856
- SGPRRYNIAAL [TTR_Y125_T126N] — lower, 0.52
- EQLRAYLEGEC [HLA-C_Y183_T187E] — higher, 1.25
- HQNGTYGLHQD [SGSH_Y89_M88T] — higher, 0.764
- KYVKMCDNHQL [MYO9A_Y203_Y203C] — lower, 0.546
- RLLVLYPWTQR [HBB_Y36_V35L] — higher, 1.26
- IGMSSYVMLAS [GGCX_Y301_F299S] — higher, 1.2
- DTCPPYVLSQV [GJB4_Y237_G242V] — higher, 1.11
- NPSYNYEIVNQ [DYNC1H1_Y3379_R3384Q] — higher, 0.818
- SFLSYYTSHVQ [NEFL_Y443_P440L] — higher, 1.1
- DDKQPYEKKAE [HMGB1_Y144_A149E] — higher, 1.04
- IRTDAYVQAMT [RPE65_Y89_R91Q] — lower, 0.644
- MSIWPYLQKID [MFSD8_Y63] — higher, 0.854
- NGRTGYVLQPE [PLCG2_Y1036] — higher, 0.757
- DGKFSYLKVGH [GRM3_Y480_G475D_YF] — higher, 1.16
- YRIGPYQPNVP [MATR3_Y784] — higher, 0.736

Biological target: Fyn (UniProt P06241)
Assay: as above

Sequence of Fyn (P06241 whole entry, looked up): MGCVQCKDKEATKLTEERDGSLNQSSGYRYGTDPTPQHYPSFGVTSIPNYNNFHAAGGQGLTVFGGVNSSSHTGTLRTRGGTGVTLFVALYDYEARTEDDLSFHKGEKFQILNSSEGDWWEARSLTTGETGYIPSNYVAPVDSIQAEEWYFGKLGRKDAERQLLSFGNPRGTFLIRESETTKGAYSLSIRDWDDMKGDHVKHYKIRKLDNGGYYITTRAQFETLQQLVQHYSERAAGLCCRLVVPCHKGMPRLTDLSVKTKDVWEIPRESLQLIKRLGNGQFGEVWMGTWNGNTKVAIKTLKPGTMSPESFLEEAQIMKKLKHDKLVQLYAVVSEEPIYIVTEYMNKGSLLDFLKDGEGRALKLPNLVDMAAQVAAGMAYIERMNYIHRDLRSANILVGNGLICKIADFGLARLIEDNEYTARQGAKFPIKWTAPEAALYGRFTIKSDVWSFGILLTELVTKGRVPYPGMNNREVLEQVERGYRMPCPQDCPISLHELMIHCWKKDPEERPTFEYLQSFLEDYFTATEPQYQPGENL

Point of comparison: TFHNTYHSQMR [IL1RAPL1_Y615], phosphorylation enrichment 0.471. Against it:
- RSFSPCDFQPC [TNS1_Y796_Y796C_YF] — higher, 0.783
- GESVSYLFSHV [PRPS1_Y311] — lower, 0.421
- ASELGYVFQAI [UROD_Y133] — lower, 0.397
- GFEVVYVTEPI [HSP90AB1_Y512_M513V] — lower, 0.424
- FKIFRYTLNDN [FN1_Y1975_L1974R_YF] — lower, 0.42
- SVTCTYSPALT [TP53_Y126_N131T] — lower, 0.446
- AALKLYHVSDS [VIL1_Y256] — higher, 0.561
- DGLASYLDKVR [KRT12_Y139_R135G] — lower, 0.422
- LSIQTYSALNF [DES_Y423_P419S] — higher, 4.8
- TPLSAYQIPRT [GAB2_Y324] — lower, 0.365
- ADNQRYAFMPL [TMEM87B_Y460_N456D] — higher, 0.503
- TGILLYGLASR [QARS1_Y57] — higher, 0.578
- TVLEPYADPYY [ZC3H18_Y367] — higher, 1.23
- WQQQSYLDSGS [CTNNB1_Y30_I35S] — lower, 0.423
- DPHQQYFIAMD [TBX15_Y159_YF] — higher, 0.551
- VMIYAYLLHRG [PTEN_Y138_C136Y] — lower, 0.443
- SGPRRYNIAAL [TTR_Y125_T126N] — lower, 0.377
- EQLRAYLEGEC [HLA-C_Y183_T187E] — higher, 0.548
- HQNGTYGLHQD [SGSH_Y89_M88T] — higher, 0.61
- KYVKMCDNHQL [MYO9A_Y203_Y203C] — lower, 0.407
- RLLVLYPWTQR [HBB_Y36_V35L] — higher, 0.791
- IGMSSYVMLAS [GGCX_Y301_F299S] — higher, 0.496
- DTCPPYVLSQV [GJB4_Y237_G242V] — higher, 0.573
- TGTQLYGRFGS [ITGA2B_Y384] — higher, 10.6
- NPSYNYEIVNQ [DYNC1H1_Y3379_R3384Q] — lower, 0.463
- SFLSYYTSHVQ [NEFL_Y443_P440L] — higher, 0.585
- DDKQPYEKKAE [HMGB1_Y144_A149E] — higher, 0.53
- IRTDAYVQAMT [RPE65_Y89_R91Q] — higher, 0.49
- MSIWPYLQKID [MFSD8_Y63] — lower, 0.329
- NGRTGYVLQPE [PLCG2_Y1036] — lower, 0.448
- DGKFSYLKVGH [GRM3_Y480_G475D_YF] — lower, 0.33
- YRIGPYQPNVP [MATR3_Y784] — higher, 0.505
